Consider 130 substances from the supplement of paper PMC12042874.

± gives the uncertainty stated by the source.

This data set in a line: amyloid nucleation score (Sup35N fusion, yeast selection) (log enrichment); library NNK3; higher = more nucleation; inactive = no reads after selection. Summed up: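 Growth for 7 days at 30°C on medium lacking adenine and uracil followed a 24-hour induction with 100 μM copper sulfate of psi-negative yeast expressing peptides of 20 random codons fused to Sup35N. Input and output plasmid inserts were sequenced with Illumina, and sequences with under 100 input reads were excluded. Nucleation score is the DiMSum log enrichment of output over input reads, centred on the mode score of non-aggregating sequences.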
Regarding MLQWVESLGGICITRSVLIL, the amyloid nucleation score entry is “inactive”.

As for MLSISFLYFATTVGVDVTLG, the amyloid nucleation score result was “inactive”.

For the substance MMAFTVFISEQDYSGIIFYE, the amyloid nucleation score result is “inactive”.

MMDSWYVVVRYLSTLYNCDI: the amyloid nucleation score result was “inactive”.

In the case of MMGSVQLVHSIEYSCMHGTS, the amyloid nucleation score entry is “inactive”.

Consider MMLFNSMWDIFCLMDGLH, for which the amyloid nucleation score entry is “inactive”.

Turning to MMLFNVPKICHRLWLNLHRH, the amyloid nucleation score result is “inactive”.

With MMLLGVRVED, the amyloid nucleation score entry is “inactive”.

For MMYNVMVSSRLMRLCFSRRV, the amyloid nucleation score entry is “inactive”.

On to MMYRSRFGLKMLPGLQPAIA, for which the amyloid nucleation score result is “inactive”.

For the substance MNCDDAVDWCFII, the amyloid nucleation score entry is “inactive”.

Regarding MNLDVWSFMSMFNSFRVWVQ, the amyloid nucleation score entry was “inactive”.

As to MNMGYFRFNL, the amyloid nucleation score entry is “inactive”.

MNRKVVANSGDRDGIVRTSS showed an amyloid nucleation score of 0.278 ± 0.43.

For the substance MNTSDSARKSRYRARG, the amyloid nucleation score result is “inactive”.

For MPGLAVFGCPRRCCGFRGLV, the amyloid nucleation score result was “inactive”.

With MPLYCNKMGCPLGKGMHMCH, the amyloid nucleation score entry is “inactive”.

For MPPLNNCLDPYFLVCCNMVY, the amyloid nucleation score entry is “inactive”.

MPTTHASLSSSFLG: the amyloid nucleation score result is “inactive”.

For MPYMW, the amyloid nucleation score is 0.73 ± 0.29.

As to MPYVSKVYHYRYT, the amyloid nucleation score entry was “inactive”.

Regarding MRAIMWFINKDLLLTCGDDS, the amyloid nucleation score result is “inactive”.

For the substance MRCILTLFSTDIICVLSCKC, the amyloid nucleation score entry is “inactive”.

As for MRFADFCRGYFRRGSYPLGF, the amyloid nucleation score entry was “inactive”.

In turn, MRFLWCNVCL displayed an amyloid nucleation score of 2.07 ± 0.078.

As for MRGINRIDLLPG, the amyloid nucleation score result was “inactive”.

In the case of MRGRFLASPGWFTFRIFFVF, the amyloid nucleation score amounted to 0.836 ± 0.27.

In turn, MRISRAVHELWILNFVTKES returned an amyloid nucleation score of -0.52 ± 1.3.

Take MRMHALAVNIGCCYTCVVVT: the amyloid nucleation score worked out at 0.866 ± 0.099.

On to MRMVTSCTISF, for which the amyloid nucleation score result was “inactive”.

MRSNMFSRAGNYGQSIKELT: the amyloid nucleation score result is “inactive”.

On to MRSRGTLHYATDSLWSLGEP, for which the amyloid nucleation score entry is “inactive”.

Take MRTMISYMVRVVRTHTCFLD: the amyloid nucleation score entry is “inactive”.

Turning to MSCICGKPTAVCI, the amyloid nucleation score entry was “inactive”.

In the case of MSDWLDELVGSPMSKREVCR, the amyloid nucleation score entry is “inactive”.

Consider MSELWWAPSFKYQLFSHFIK, for which the amyloid nucleation score entry was “inactive”.

In the case of MSKARFRWSDNTDPFFSVGQ, the amyloid nucleation score came to 0.196 ± 0.51.

In the case of MSLPSSSQAYSCRWTWPRPA, the amyloid nucleation score result was “inactive”.

On to MSSACGWEEVIGCLEVMRIG, for which the amyloid nucleation score result is “inactive”.

As to MSTLEMHYGPSFSCLYNMQD, the amyloid nucleation score was found to be 1.89 ± 0.065.

Regarding MSVYRYSKAVYARIEFTSRS, the amyloid nucleation score result was “inactive”.

For MSYINRAPFAMSGLFCAWFD, the amyloid nucleation score entry is “inactive”.

Take MTDDRWLRRRVSPCSVRRFS: the amyloid nucleation score result was “inactive”.

MTFTCFVRFPTVRYNAKGCL: the amyloid nucleation score entry is “inactive”.

The substance MTRVYLMNFVLQLASTSQDS displayed an amyloid nucleation score of 2.54 ± 0.065.

On to MTVPTCHNDASARLMLRLLG, for which the amyloid nucleation score result is “inactive”.

MTVTGPQYLPWGLRHNA: the amyloid nucleation score result was “inactive”.

With MTWGSNFSDNGYKLEIMCYQ, the amyloid nucleation score result is “inactive”.

With MVFEKGFSTNNRHGGHLDEQ, the amyloid nucleation score result was “inactive”.

On to MVFSAICITHFTKI, for which the amyloid nucleation score result is “inactive”.

For the substance MVGAPDV, the amyloid nucleation score entry is “inactive”.

The substance MVGGVHCLSSVLRRWAAGRR returned an amyloid nucleation score of -0.676 ± 1.7.

MVKCQWGFRL registered an amyloid nucleation score of 1.33 ± 0.12.

Take MVKGGKDHSSVGPC: the amyloid nucleation score entry was “inactive”.

In the case of MVKLCALSCSIALDPIQTFK, the amyloid nucleation score worked out at 0.426 ± 0.19.

Turning to MVLGMYKQ, the amyloid nucleation score result was “inactive”.

For MVLRVLNYFINFCATVLAGS, the amyloid nucleation score result is “inactive”.

As to MVLYRFCIVIHWTCTV, the amyloid nucleation score result is “inactive”.

Take MVNTKTISYWPKDSQHLRV: the amyloid nucleation score entry was “inactive”.

Turning to MVQRSMKARILFCKVNFLCA, the amyloid nucleation score was 1.16 ± 0.15.

In the case of MVRFMLFMK, the amyloid nucleation score result was “inactive”.

Consider MVVYKNYM, for which the amyloid nucleation score entry is “inactive”.

For MWKDLVVCL, the amyloid nucleation score was determined as 0.175 ± 0.88.

As to MYEVVRVKYMVAQQFNISSE, the amyloid nucleation score entry was “inactive”.

Substance MYGLHLNPALITVYFRGKGL gave an amyloid nucleation score of -0.018 ± 0.34.

MYRLVGHLTIHVVMVLAQWW: the amyloid nucleation score entry is “inactive”.

For MYVYSYQVYNLTCARLAKK, the amyloid nucleation score result was “inactive”.

For the substance MYYSSYR, the amyloid nucleation score result was “inactive”.

NACVNEWRPKCQVSWGGPSF gave an amyloid nucleation score of -0.385 ± 0.93.

Take NADTYNRSDEKMTGRYWDRR: the amyloid nucleation score result is “inactive”.

In turn, NARHFIRYATFCCQYASRCG gave an amyloid nucleation score of 0.928 ± 0.18.

As for NASNHSVSTRCVVDRG, the amyloid nucleation score entry was “inactive”.

In the case of NATIKIFTTIISDYQFGMR, the amyloid nucleation score was 0.152 ± 0.3.

For the substance NAYCPPSLCVKRLYLFRMTK, the amyloid nucleation score result was “inactive”.

Turning to NCCCLYP, the amyloid nucleation score was determined as 1.71 ± 0.091.

As for NCDCSIAEPESILRFESPRE, the amyloid nucleation score entry was “inactive”.

Consider NCFMRLMVFAKRVIGCLQPP, for which the amyloid nucleation score was 0.15 ± 0.43.

Take NCKMWRYKVESNCPGMICRC: the amyloid nucleation score result is “inactive”.

As to NCMELLWCCSCSSVICVMHH, the amyloid nucleation score was determined as 2.96 ± 0.07.

For the substance NCRGPCFKSKCSLIPRYTFV, the amyloid nucleation score entry was “inactive”.

NCRVMEISIGKAKQSWNFVM: the amyloid nucleation score result is “inactive”.

NCYNQYRSSWRLTCCLF returned an amyloid nucleation score of 3.34 ± 0.064.

Consider NDASPLFSKGVLDFLSTKSL, for which the amyloid nucleation score entry was “inactive”.

Take NDASVLRNSPELSESFRGKW: the amyloid nucleation score entry was “inactive”.

With NDGLAQSNIEIKDYRCRQNY, the amyloid nucleation score entry was “inactive”.

Consider NDHLSCVRMVLHSMGCHKWS, for which the amyloid nucleation score is -0.181 ± 0.88.

Take NDIMKTCFFNTYAYHLSVVM: the amyloid nucleation score result was “inactive”.

With NDMFRVSCSQNSESQYNLNG, the amyloid nucleation score entry is “inactive”.

For the substance NDNIDPTRVIQ, the amyloid nucleation score entry is “inactive”.

On to NDTFVY, for which the amyloid nucleation score entry is “inactive”.

On to NDYCPLYIGHVGRFHPAKDV, for which the amyloid nucleation score result is “inactive”.

For NELGEIAYGCGFRVVCRCMR, the amyloid nucleation score result is “inactive”.

As to NFCFDSPLIFPDCQLG, the amyloid nucleation score result is “inactive”.

For NFFWFYWIWKSSGGYTGWLL, the amyloid nucleation score result was “inactive”.

Turning to NFGQNCN, the amyloid nucleation score was -0.48 ± 0.57.

As to NFGRAQSNACAENVFAIERG, the amyloid nucleation score result was “inactive”.

NFMYTWKRSMFYSNCKH: the amyloid nucleation score entry was “inactive”.

Take NFQVDNVGSYS: the amyloid nucleation score result is “inactive”.

In the case of NFSMCINRNKVPCVHLLDTL, the amyloid nucleation score result was “inactive”.

The substance NFSTRTGIITIGFCRVCGMR registered an amyloid nucleation score of 1.97 ± 0.096.

With NFTRPLSWNYLR, the amyloid nucleation score result is “inactive”.

In the case of NFVRRHWRWRGMSFSLVNSY, the amyloid nucleation score result was “inactive”.

Turning to NFVVKCICWAYFPHVDGFYF, the amyloid nucleation score entry is “inactive”.

Consider NFWFCLISYCESFSMISERG, for which the amyloid nucleation score entry was “inactive”.

With NGFGSNNVGSGERLADVAVI, the amyloid nucleation score entry was “inactive”.

For NGFRI, the amyloid nucleation score result is “inactive”.

As for NGKLVFCWDKFIYVYRLTWW, the amyloid nucleation score entry is “inactive”.

NGLRRSVLGLRL: the amyloid nucleation score entry is “inactive”.

Take NGNNLIRVFVWYYDNS: the amyloid nucleation score came out at 2.99 ± 0.08.

For NGRNSRQTVIRIVSRWVVNH, the amyloid nucleation score entry is “inactive”.

For NGTLSYCPDKELSTLVFLHY, the amyloid nucleation score entry is “inactive”.

With NGVVMVKSRNVPADKSNCDG, the amyloid nucleation score entry is “inactive”.

NGYFLSQGGLLSLIMHFKIV came in with an amyloid nucleation score of -0.041 ± 0.77.

NHCYLLL: the amyloid nucleation score entry is “inactive”.

Consider NHLLSSSGSNGMLKLIRFIG, for which the amyloid nucleation score result was “inactive”.

Turning to NHLSPMRTKLYLKETNPSSA, the amyloid nucleation score result is “inactive”.

As for NIAIVW, the amyloid nucleation score result was “inactive”.

For the substance NIHFSITAQ, the amyloid nucleation score result is “inactive”.

NIIKSTVIY: the amyloid nucleation score entry is “inactive”.

Consider NIIKTLAVRSGRRFRFLVRW, for which the amyloid nucleation score result was “inactive”.

In turn, NIILCCAKVFKPYMSTMTTP displayed an amyloid nucleation score of 1.98 ± 0.061.

Consider NILEYYLLTGLYVAFLYLNR, for which the amyloid nucleation score result is “inactive”.

Consider NINRSPWLIGWGLPKLKRDH, for which the amyloid nucleation score entry is “inactive”.

With NINSTFQRQVLSDCLVQWYM, the amyloid nucleation score result is “inactive”.

Regarding NINVRTELVQRKGNILP, the amyloid nucleation score stood at 0.213 ± 0.17.

NIRWMFNLYACRLLRLVHF came in with an amyloid nucleation score of 0.44 ± 0.23.

For the substance NISWVAFMIVLHLDRLNMF, the amyloid nucleation score result was “inactive”.

Regarding NIVERQDLLLGLANNWLHLT, the amyloid nucleation score result is “inactive”.

The substance NIVQYVWVDDWVFRCRCGAK returned an amyloid nucleation score of 3.15 ± 0.069.

The substance NIWESAVPWVTDALVYKNRV yielded an amyloid nucleation score of -0.323 ± 0.96.
